Measured values published in paper PMC8880779 (International Journal of Molecular Sciences, 2022).

Legend:
[1] = parameters: method as in PMID 15890345, PMID 18686032, PMID 26890761, PMID 34829555; conditions: cited from earlier work
[2] = target: (Ca^2+)4-CaM; conditions: read-out: dissociation constant of the Aβ:(Ca^2+)4-CaM complex; cited from earlier work
Description: These neurons are in the brain areas that are highly prone to neurodegeneration in AD. […] Considering their spatial organization in the CaM structure, we included a couple of additional hydrophobic amino acid residues as spacing groups.

[3] = test system: CaM in cerebellar granule neurons in culture; conditions: 2 h incubation with 2 μM Aβ(1–42) oligomers; cited from earlier work
Description: These neurons are in the brain areas that are highly prone to neurodegeneration in AD. […] Therefore, CaM has a high capacity to buffer the intracellular concentrations of these highly neurotoxic Aβ peptides ...

[4] = target: T1, calmodulin (CaM) (Bos taurus, UniProt P62157); assay: Kinetics of Aβ(1–42) HiLyte-Fluor555 complex formation with CaM (fluorescence increase); format: binding, human
T1 construct: Purified bovine brain CaM; purchased Sigma-Aldrich (Madrid, Spain); host or cells: bovine brain

[5] = Aggregation state of Aβ(1–42) stock solutions (photoinduced cross-linking of unmodified proteins); format: physicochemical; conditions: 2 μM stock solutions

**Q.** Which neurotoxicity [1] does the source give for “Aβ(25–35): highly neurotoxic peptides derived from Aβ(1–42), like Aβ(25–35) (GSNKGAIIGLM; Amyloid-beta protein 42; UniProt P05067 696-706, looked up, fragment)” here?
**A.** The neurotoxicity was “strongly neurotoxic”.

**Q.** And the Kd [2]?
**A.** Its Kd is ~1 nM.

**Q.** For “Aβ(1–42): unlabeled Aβ(1–42) synthesized and supplied by StabVida and GenicBio Limited”, which “binding of internalized Aβ(1–42) by CaM” value [3] is on record?
**A.** The value was “CaM binds most of the Aβ(1–42) internalized in cerebellar granule neurons”.

**Q.** And the stoichiometry of complex ([4]; 10 nM CaM, 10 nM Aβ(1–42))?
**A.** The stoichiometry of complex was “Aβ(1–42)2:CaM2 complexes”.

**Q.** What about the “increase of rate constant” value ([4]; 10 nM vs 5 nM CaM, 10 nM Aβ(1–42)) of the same substance?
**A.** Its value is “about 4 fold”.

**Q.** What about the “rate constant of the kinetic process” value ([4]; 1:1 molar ratio, 10 nM CaM and 10 nM Aβ(1–42)) of the same substance?
**A.** Its value is “(18 ± 4)·10^−3 s^−1”.

**Q.** What about the Kd [2] of the same substance?
**A.** The Kd was ~1 nM.

**Q.** And the concentration of monomers [5]?
**A.** The concentration of monomers was “undetectable concentration of Aβ(1–42) monomers”.

**Q.** And the predominant aggregation state ([5]; 1% NH4OH diluted with phosphate-buffered saline)?
**A.** Its predominant aggregation state is “Dimers are the predominant aggregation state”.

**Q.** With “Aβ(1–42) HiLyte^TM-Fluor555: Human Aβ(1–42)-HiLyte™-Fluor555 obtained from AnaSpec” as the substance, how does the “Y0, maximum fluorescence increase in the absence of the peptide” value ([4]; 10 nM Aβ(1–42) HiLyte-Fluor555, 5 nM CaM, 1000 s after addition, hyperbolic fit R^2 = 0.966, triplicate) read?
**A.** Its value is 22%.

**Q.** And the “maximum fluorescence change vs CaM concentration” value ([4]; 10 nM Aβ(1–42) HiLyte-Fluor555, CaM 2.5, 5 and 10 nM)?
**A.** The value was “the maximum fluorescence change was achieved when CaM concentration increased from 2.5 to 5 nM, and it is not significantly different between 5 and 10 nM of CaM”.

**Q.** What about the “slope of linear least-squares fit of first-order plot” value ([4]; fit y = 9.845 − 0.00396 x (R^2 = 0.922), 10 nM Aβ(1–42) HiLyte-Fluor555, 5 nM CaM, sign of slope in the equation negative) of the same substance?
**A.** The value was 0.00396.
